Results from patent US20260166140A1, “Combinations Involving Epidermal Growth Factor Receptor Tyrosine Kinase Inhibitors For the Treatment of Cancer” (AstraZeneca AB, priority 2022, published 2026).

Columns and labels:
[1] = tested on: multiple additional solid tumor indications; settings: cited from earlier work
HCC827 cells = assay: Internalization of AF647-labeled antibodies, live cell confocal fluorescence microscopy; assay type: cell-based; settings: HCC827 cells
Experimental: (§1) Internalization kinetics of AlexaFluor647 (AF647) primary-labeled DuetMabs: RAA22/B09 and QD6/B09 antibodies was assessed in vitro using the EGFR and c-MET expressing cell line, H1975. Each antibody was pre-bound to cells and antibody translocation from cell surface to cytoplasm was then monitored using live cell confocal fluorescence microscopy. Both antibodies localized primarily on the cell surface before (T=0) subjecting to internalization conditions and were translocated to the cytoplasm area after 1 hour (data not shown). Kinetic images were taken every 5 min over the time course of internalization and were processed using a quantitative algorithm to determine internalization kinetic constants and half-times.
Since binding of both EGFR and c-MET arms to target receptor promoted RAA22/B09 receptor internalization in H1975 cells, we examined if the increased number of EGFR and c-MET receptors would affect internalization properties. The respective receptor levels determined by Western Blot were ˜33,000 for EGFR and ˜50,000 for c-MET in H1975 cells and ˜790,000 for EGFR and ˜523,000 for c-MET in HCC827 cells.

H1975 cells = assay: as above; assay type: cell-based; settings: for internalization profile: single-arm control antibodies
Experimental: as §1
To evaluate the mode of antibody internalization and to investigate contribution of each arm to overall internalization of the DuetMabs, we evaluated internalization of single-arm specific control antibody molecules, QD6/IgG and B09/IgG, against duet QD6/B09, and RAA22/IgG and B09/IgG against duet RAA22/B09 in H1975 cells, which express both EGFR and c-MET. Since only one arm is specific for the target receptor, the control antibody can only internalize via one receptor eliminating dual receptor targeting and cross-linking as mode of internalization.

Human EGFR [2] = biological target: T1, Human EGFR (Homo sapiens, UniProt P00533); assay: ELISA species cross reactivity; assay type: binding; settings: antibody 10 to 0.002 μg/mL
Experimental: (§2) Specificity for EGFR and cMET species paralogs and closely related family members was determined by ELISA. Briefly, antigen solutions were prepared in PBS at 1 μg/mL and 50 microliters was coated onto half area ELISA assay plates. Plates were washed and blocked with 1% BSA in PBS containing 0.005% Tween-20 (PBS-T) for one hour at room temperature. The wells were washed 4 times in PBS-T. As set out in FIG. 3, the primary antibodies used where: R374 (a non-binding IgG1 isotype control antibody), B09 (anti-cMET antibody), QD6 (anti-EGFR antibody), RAA22 (anti-EGFR antibody), QD6/B09 (bispecific EGFR/c-MET DuetMAb), RAA22/B09 (bispecific EGFR/c-MET DuetMAb), PaniX (anti-EGFR antibody), MetMab (anti-cMET antibody) and Mab11311 (anti-HER4 antibody). Wells were incubated with 50 microliters of the indicated primary antibodies diluted in PBS-T in a 1:3 dilution series, starting at 10 μg/mL and ending at 0.002 μg/mL, except for the HER4 binding mAb control, MAB1131, for which the series started at 1 μg/mL. The wells were washed 4 times in PBS-T, then 50 μl of goat anti-human Fab HRP-labeled secondary antibody, diluted 1:5000 in PBS-T, was added to each well and incubated for one hour at room temperature. […] 50 microliters of TMB stop solution was added to all wells and the absorbance was read at 450 nm on a SpectraMax M5 microplate reader. Data were analyzed in the SoftMax Pro 5 software and plotted using GraphPad Prism 7 graphing software.
(§3) To determine the species cross reactivity, ELISA assays were carried out as described above. […] There was no detectable binding of any of the antibodies to mouse cMET.

Mouse EGFR [3] = biological target: T2, Mouse EGFR (Mus musculus, UniProt Q01279); assay: ELISA species cross reactivity; assay type: binding
T2 construct: purchased SinoBiological 51091-M08H
Experimental: as §2, §3

Cynomolgus monkey EGFR [4] = assay: ELISA species cross reactivity; assay type: binding
Experimental: as §2, §3

Human EGFR [5] = biological target: T1, Human EGFR; assay: SPR (BIAcore T200) antibody capture kinetics; assay type: binding; settings: 25° C.
Experimental: (§4) Mouse anti-human IgG was immobilized on a CM4 sensor chip with a final surface density of ˜2000 resonance units (RUs). A reference flow cell surface was also prepared on this sensor chip using identical immobilization protocol. Test and control article antibodies were prepared at 5-20 nM in instrument buffer (HBS-EP buffer; 0.01M HEPES, pH 7.4, 0.15M NaCl, 3 mM EDTA, and 0.005% P-20), along with 3-fold serial dilutions of purified EGFR (0.27-200 nM human, 0.4-900 nM cyno, and 4-1000 nM murine) or cMET proteins (0.27 to 66 nM human and 0.27-22 nM cyno) in instrument buffer. A sequential approach was utilized for kinetic measurements. Antibodies were first injected over the capture surface, at a flow rate of 10 μL/minute. Once the binding of the captured antibody stabilized, a single concentration of the analyte was injected over both capture and reference surfaces, at a flow rate of 75 μL/minute. The resulting binding response curves yielded the association phase data. Following the injection of analyte, the flow was then switched back to instrument buffer for 15 minutes to permit the collection of dissociation phase data, followed by a 1-minute pulse of 10 mM glycine, pH 1.5, to regenerate the antibody-captured surface on the chip. Binding responses against test and control article antibodies were recorded from duplicate injections of each concentration of analyte. In addition, several buffer injections were interspersed throughout the injection series. Select buffer injections were used along with the reference cell responses to correct the raw data sets for injection artifacts and/or nonspecific binding interactions, commonly referred to as “double referencing”. Corrected binding data were globally fit to a 1:1 binding model (Biacore T200 Evaluation software 2.0, GE Healthcare, Pittsburgh, PA).

Mouse EGFR [6] = biological target: T2, Mouse EGFR; assay: SPR (BIAcore T200) antibody capture kinetics; assay type: binding; settings: 25° C.
Experimental: as §4

Cynomolgus monkey EGFR [7] = assay: SPR (BIAcore T200) antibody capture kinetics; assay type: binding; settings: 25° C.
Experimental: as §4

Molecule: ABT-414
- efficacy ([1]; Phase II trials, tolerated doses): limited efficacy at tolerated doses
- ocular toxicities ([1]; treated patients): concerning ocular toxicities were frequently observed in treated patients

B1: RAA22/IgG: single-arm specific control antibody molecule with RAA22 EGFR arm (antibody, V domains shown)
VH: QVQLVQSGAEVKKPGSSVKVSCKASGGTFSDNDFSWVRQAPGQGLEWMGAIVAVFRTETYAQKFQDRVKITADISTRTTYMELSSLRSEDTAVYYCARRLMSAISGPGAPLLMWGQGTLVTVSS
VL: QSALTQPRSVSGSPGQSVTISCTGTSSDVGGYNYVSWYQQHPGKAPKLMIYDVSKRPSGVPDRFSGSKSGNTASLTISGLQAEDEADYYCSSYTSSDTLEIFGGGTKLTVL
- intensity profiles, fold lower than RAA22/B09 (HCC827 cells): ~10 fold
- number of molecules, fold less than for the RAA22-B09 DuetMab (based on fluorescent intensity) (H1975 cells): 10.98 fold
- internalization profile (H1975 cells): rapid internalization

B2: QD6/IgG: single-arm specific control antibody molecule with QD6 EGFR arm (antibody, V domains shown)
VH: QVQLVQSGAEVKKPGSSVKVSCKASGGTFSDNDFSWVRQAPGQGLEWMGAIVAVVRTETYAQKFQDRVKITADISTRTTYMELSSLRSEDTAVYYCARRLMSAISGPGAPLLMWGQGTLVTVSS
VL: QSALTQPRSVSGSPGQSVTISCTGTSSDVGGYNYVSWYQQHPGKAPKLMIYDVSERPSGVPDRFSGSKSGNTASLTISGLQAEDEADYYCFSYTSSDTLEIFGGGTKLTVL
- internalization profile (H1975 cells): near-identical internalization time course as the QD6/B09 DuetMab

B3: QD6 IgG: high affinity anti-EGFR IgG1 antibody clone, VH SEQ ID NO: 18, VL SEQ ID NO: 22 (antibody, V domains shown)
VH: QVQLVQSGAEVKKPGSSVKVSCKASGGTFSDNDFSWVRQAPGQGLEWMGAIVAVVRTETYAQKFQDRVKITADISTRTTYMELSSLRSEDTAVYYCARRLMSAISGPGAPLLMWGQGTLVTVSS
VL: QSALTQPRSVSGSPGQSVTISCTGTSSDVGGYNYVSWYQQHPGKAPKLMIYDVSERPSGVPDRFSGSKSGNTASLTISGLQAEDEADYYCFSYTSSDTLEIFGGGTKLTVL
- ELISA binding (Human EGFR [2]): gave robust signals
- ELISA binding (Mouse EGFR [3]): gave robust signals
- ELISA binding (Cynomolgus monkey EGFR [4]): gave robust signals
- Koff (Human EGFR [5]): 0.000292 s⁻¹
- Kon (Human EGFR [5]; 1:1 binding model): 148000 M⁻¹ s⁻¹
- Koff (Mouse EGFR [6]): 0.000735 s⁻¹
- Kon (Mouse EGFR [6]): 167000 M⁻¹ s⁻¹
- Koff (Cynomolgus monkey EGFR [7]): 0.000288 s⁻¹
- Kon (Cynomolgus monkey EGFR [7]): 114000 M⁻¹ s⁻¹

B4: B09/IgG: single-arm specific control antibody molecule with B09 cMET arm (antibody, V domains shown)
VH: QVQLVQSGAEVKKPGASVKVSCKASGYTFTDYYIHWVRQATGQGLEWMGWMNPNSGNTGYAQKFQGRVTMTRDTSISTAYMELSSLRSEDTAVYYCARGQGYTHSWGQGTMVTVSS
VL: DIQMTQSPSTLSASVGDRVTITCRASEGIYHWLAWYQQKPGKAPKLLIYKASSLASGVPSRFSGSGSGTEFTLTISSLQPDDFATYYCQQYSNYPPTFGGGTKLEIK
modifications: left off: another chain or arm of the molecule; a dimerising Fc or GST; small tags and cut ends
- internalization profile (HCC827 cells): dissociates from cell membrane
- internalization profile (H1975 cells): very small level of internalization
